Experimental data as given in patent publication US20100162418A1 (Kyowa Kirin, published 2010).

B1: Lens culinaris agglutinin (LCA) lectin (manufactured by Vector Laboratories) (other)
chain 1: TETTSFSITKFSPDQKNLIFQGDGYTTKGKLTLTKAVKSTVGRALYSTPIHIWDRDTGNVANFVTSFTFVIDAPSSYNVADEFTFFIAPVDTKPQTGGGYLGVFNSKEYDKTSQTVAVEFDTFYNAAWDPSNKERHIGIDVNSIKSVNTKSWNLQNGERANVVIAFNAATNVLTVTLTYP
chain 2: VTSYTLNEVVPLKDVVPEWVRIGFSATTGAEFAAHEVHSWSFHSELGGTSSS
notes: A lectin; also called lentil lectin
B2: MSPS, purified recombinant human Protein S obtained from FUT8 knockout CHO/DG44 cells (other)
chain: ANSLLEETKQGNLERECIEELCNKEEAREVFENDPETDYFYPKYLVCLRSFQTGLFTAARQSTNAYPDLRSCVNAIPDQCSPLPCNEDGYMSCKDGKASFTCTCKPGWQGEKCEFDINECKDPSNINGGCSQICDNTPGSYHCSCKNGFVMLSNKKDCKDVDECSLKPSICGTAVCKNIPGDFECECPEGYRYNLKSKSCEDIDECSENMCAQLCVNYPGGYTCYCDGKKGFKLAQDQKSCEVVSVCLPLNLDTKYELLYLAEQFAGVVLYLKFRLPEISRFSAEFDFRTYDSEGVILYAESIDHSAWLLIALRGGKIEVQLKNEHTSKITTGGDVINNGLWNMVSVEELEHSISIKIAKEAVMDINKPGPLFKPENGLLETKVYFAGFPRKVESELIKPINPRLDGCIRSWNLMKQGASGIKEIIQEKQNKHCLVTVEKGSYYPGSGIAQFHIDYNNVSSAEGWHVNVTLNIRPSTGTGVMLALVSGNNTVPFAVSLVDSTSEKSQDILLSVENTVIYRIQALSLCSDQQSHLEFRVNRNNLELSTPLKIETISHEDLQRQLAVLDKAMKAKVATYLGGLPDVPFSATPVNAFYNGCMEVNINGVQLDLDEAISKHNDIRAHSCPSVWKKTKNS
modifications: gamma-carboxylated glutamic acid (Gla) in the Gla domain; complex type N-glycoside-linked sugar chains without fucose (fucose not detected)
notes: It differs from KCPS only in glycosylation (no core fucose); also called fucose-free recombinant Protein S
B3: human plasma-derived Protein S (manufactured by Calbiochem) (other)
chain: B2 chain
modifications: gamma-carboxylated glutamic acid (Gla) in the N-terminal Gla domain; complex type N-glycoside-linked sugar chains (Asn458, Asn468, Asn489), partly with core alpha1,6-fucose (Fuc 0.26 per Man 3.00)
notes: Bought protein purified from human plasma; also called native Protein S; Human plasma Protein S
B4: KCPS, purified recombinant human Protein S obtained from CHO/DG44 cells (other)
chain: B2 chain
modifications: gamma-carboxylated glutamic acid (Gla) in the Gla domain; complex type N-glycoside-linked sugar chains with fucose (Fuc 0.69 per Man 3.00)
notes: It differs from MSPS only in glycosylation (highest core fucose ratio)
B5: recombinant human CD14 protein (manufactured by R&D systems) (receptor, UniProt P08571 20-352, looked up)
chain: TTPEPCELDDEDFRCVCNFSEPQPDWSEAFQCVSAVEVEIHAGGLNLEPFLKRVDADADPRQYADTVKALRVRRLTVGAAQVPAQLLVGALRVLAYSRLKELTLEDLKITGTMPPLPLEATGLALSSLRLRNVSWATGRSWLAELQQWLKPGLKVLSIAQAHSPAFSCEQVRAFPALTSLDLSDNPGLGERGLMAALCPHKFPAIQNLALRNTGMETPTGVCAALAAAGVQPHSLDLSHNSLRATVNPSAPRCMWSSALNSLNLSFAGLEQVPKGLPAKLRVLDLSCNRLNRAPQPDELPEVDNLTLDGNPFLVPGTALPHEGSMNSGVVPAC
notes: Bought

How the values were obtained:
[1] = biological target: human plasma-derived Protein S (manufactured by Calbiochem) (human) (UniProt P07225); experiment: SPR (Biacore T100), Protein S immobilised on CM5, C-17 as analyte
[2] = biological target: KCPS, purified recombinant human Protein S obtained from CHO/DG44 cells (human) (UniProt P07225); experiment: SPR (Biacore T100), KCPS immobilised on CM5, C-17 as analyte
[3] = biological target: MSPS, purified recombinant human Protein S obtained from FUT8 knockout CHO/DG44 cells (human) (UniProt P07225); experiment: SPR (Biacore T100), MSPS immobilised on CM5, C-17 as analyte
[4] = biological target: T1, human plasma-derived antithrombin III (manufactured by Calbiochem) (human, UniProt P01008 33-464, four asparagine-linked sugar chains without core alpha1,6-fucose); experiment: SPR (Biacore T100), antithrombin III immobilised on CM5 chip, LCA as analyte
T1 construct: mature; Bought plasma protein; also called human plasma antithrombin III
Method: The abscissa represents time (seconds), and the ordinate represents a binding activity of LCA to a glycoprotein on a sensor chip of Biacore T100. From the top, each sensorgram represents a value obtained when LCA was allowed to run at concentrations of 50000, 25000, 12500, 6250, 3125 and 0 ng/mL. The top represents the binding between human plasma Protein S and LCA, and the bottom represents the binding between human plasma antithrombin III and LCA.
Next, in order to analyze the binding mode of fucose added to the sugar chain of the human plasma-derived Protein S, the binding between core α1,6-fucose-specific lectin, Lens culinaris agglutinin (LCA) lectin and Protein S was analyzed by surface plasmon resonance. Using an amine coupling kit (manufactured by Biacore), human plasma-derived Protein S (manufactured by Calbiochem) and human plasma-derived antithrombin III (manufactured by Calbiochem) were respectively immobilized on flow cells of a CM5 sensor chip (manufactured by Biacore). The human plasma-derived antithrombin III is a glycoprotein having four asparagine-linked sugar chains, but these sugar chains are known not to have core α1,6-fucose (WO2005/035563). An immobilized amount of the ligand protein on the respective flow cells was set to the range of 2000 to 3000 resonance units (hereinafter referred to as “RU”). […]

[5] = biological target: T2, human plasma-derived complement C4 binding protein (C4BP; manufactured by BioMed) (human, UniProt P04003 49-597; P20851 18-252); experiment: SPR (Biacore T100), MSPS immobilised on CM5, C4BP as analyte
T2 construct: mature; Bought plasma protein; also called Human C4BP
T2 sequence (looked up) 1: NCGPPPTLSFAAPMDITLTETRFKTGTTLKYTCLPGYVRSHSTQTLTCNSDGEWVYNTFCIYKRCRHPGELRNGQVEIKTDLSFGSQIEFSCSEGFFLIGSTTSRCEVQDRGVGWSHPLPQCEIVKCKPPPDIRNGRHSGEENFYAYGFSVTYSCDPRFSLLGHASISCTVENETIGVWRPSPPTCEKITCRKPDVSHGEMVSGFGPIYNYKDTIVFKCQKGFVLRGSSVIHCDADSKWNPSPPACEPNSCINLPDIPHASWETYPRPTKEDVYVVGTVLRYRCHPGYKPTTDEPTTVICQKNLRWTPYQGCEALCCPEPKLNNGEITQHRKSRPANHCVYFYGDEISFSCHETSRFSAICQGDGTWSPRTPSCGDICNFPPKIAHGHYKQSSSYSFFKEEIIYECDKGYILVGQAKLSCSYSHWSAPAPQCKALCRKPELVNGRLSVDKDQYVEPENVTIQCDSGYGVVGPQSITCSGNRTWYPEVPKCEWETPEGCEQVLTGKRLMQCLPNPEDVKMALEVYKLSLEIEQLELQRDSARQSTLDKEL
T2 sequence (looked up) 2: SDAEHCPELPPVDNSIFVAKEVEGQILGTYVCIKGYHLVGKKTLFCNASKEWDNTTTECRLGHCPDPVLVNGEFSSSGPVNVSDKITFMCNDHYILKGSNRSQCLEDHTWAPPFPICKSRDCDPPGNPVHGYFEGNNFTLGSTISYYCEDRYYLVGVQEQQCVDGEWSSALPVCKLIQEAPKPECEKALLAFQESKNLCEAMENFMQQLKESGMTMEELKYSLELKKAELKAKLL
Excerpt: (§1) Using an amine coupling kit (manufactured by Biacore), human plasma-derived Protein S (manufactured by Calbiochem), and recombinant human Protein S prepared in Example 4, MSPS and KCPS were respectively immobilized on flow cells of a CM5 sensor chip (manufactured by Biacore). An immobilized amount of the ligand protein on the respective flow cells was set to the range of 1500 to 2000 RU. Then, an anti-human Protein S antibody C-17 (manufactured by Santa Cruz) (FIG. 7), or a human plasma-derived complement C4 binding protein (manufactured by BioMed) diluted to given concentrations (50000, 25000, 12500, 6250, 3125, and 1562 ng/mL) using HBS-EP+buffer (manufactured by Biacore), as an analyte, was allowed to run and bind to the ligand-immobilized flow cells at a temperature of 25° C., a flow rate of 5 μL/min, association time of 140 seconds, and dissociation time of 240 seconds. The anti-human Protein S antibody C-17 and the human plasma-derived complement C4 binding protein are known to bind to the sex hormone-binding globulin-like domain (SHBG domain) at the carboxyl terminal of Protein S. The chip was regenerated by a flow of an aqueous glycine solution (pH 1.5) (manufactured by Biacore) for 60 seconds. Dissociation constants calculated by analysis of the obtained data using Biacore T100 evaluation software ver 1.1 (manufactured by Biacore) are given in Table 2 below.

[6] = biological target: T3, recombinant human RAGE-Fc fusion protein (manufactured by R&D Systems) (human, UniProt Q15109 24-344); experiment: SPR (Biacore T100), Protein S immobilised on CM5, RAGE-Fc as analyte
T3 construct: Bought fusion protein; also called recombinant soluble RAGE-human IgG1 Fc chimeric protein; not shown: Fc of human IgG1

[7] = biological target: T2, human plasma-derived complement C4 …; experiment: SPR (Biacore T100), Protein S immobilised on CM5, C4BP as analyte
Excerpt: as §1

[8] = biological target: T2, human plasma-derived complement C4 …; experiment: SPR (Biacore T100), KCPS immobilised on CM5, C4BP as analyte
Excerpt: as §1

[9] = biological target: B2; experiment: SPR (Biacore T100), Protein S immobilised on C1 chip, CD14 as analyte
Method: Using an amine coupling kit, human plasma-derived Protein S, and recombinant human Protein S prepared in Example 3, MSPS were respectively immobilized at 700 to 800 RU on flow cells of a Series S C1 sensor chip (manufactured by Biacore). Then, the experiment was carried out in the same manner as in Example 5, using a recombinant human CD14 protein (manufactured by R&D systems) diluted to given concentrations (25000, 12500, 6250, 3125, and 1562 ng/mL) using HBS-EP+buffer (manufactured by Biacore), as an analyte.

T3 sequence (Q15109 24-344 limits assumed): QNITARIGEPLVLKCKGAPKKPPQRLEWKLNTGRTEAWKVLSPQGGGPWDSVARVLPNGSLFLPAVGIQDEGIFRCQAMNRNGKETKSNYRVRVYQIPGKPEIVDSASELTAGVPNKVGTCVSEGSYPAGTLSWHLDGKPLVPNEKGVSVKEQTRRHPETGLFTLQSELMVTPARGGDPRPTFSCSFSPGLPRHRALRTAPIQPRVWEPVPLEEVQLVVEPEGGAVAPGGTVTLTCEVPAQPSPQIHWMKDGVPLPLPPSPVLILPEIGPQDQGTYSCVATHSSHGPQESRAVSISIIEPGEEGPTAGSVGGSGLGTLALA
T1 sequence (P01008 33-464): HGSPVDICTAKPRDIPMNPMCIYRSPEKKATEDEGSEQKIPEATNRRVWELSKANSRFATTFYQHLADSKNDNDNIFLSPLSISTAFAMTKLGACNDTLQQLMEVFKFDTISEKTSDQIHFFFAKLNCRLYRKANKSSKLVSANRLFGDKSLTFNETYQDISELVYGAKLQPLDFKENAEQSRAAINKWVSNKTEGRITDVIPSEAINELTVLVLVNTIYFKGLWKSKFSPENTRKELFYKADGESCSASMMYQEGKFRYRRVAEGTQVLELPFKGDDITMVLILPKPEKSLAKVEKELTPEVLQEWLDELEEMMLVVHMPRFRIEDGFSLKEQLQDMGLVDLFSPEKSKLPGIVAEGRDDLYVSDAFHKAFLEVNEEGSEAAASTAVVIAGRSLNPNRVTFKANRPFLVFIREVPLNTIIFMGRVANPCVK

Q: For “anti-human Protein S antibody C-17 (manufactured by Santa Cruz)”, which Kd [1] is on record?
A: 230 nM

Q: And the Kd [2]?
A: 220 nM

Q: And the Kd [3]?
A: 240 nM

Q: Does B1 bind [4]?
A: no binding (tested: 50000 ng/mL)

Q: Which results are given for B2?
A: Kd [5]: 92 nM; fold affinity for RAGE against human plasma Protein S [6]: ~7 fold

Q: How did the Kd [7] turn out when B3 was run?
A: 101 nM

Q: How did the Kd [8] turn out when B4 was run?
A: 81 nM

Q: Does B5 bind [9]?
A: binds
